# Measurements reported in patent US20230357342A1 (published 2023).
# Numbering of substitutions follows the chain as printed. Names may count otherwise.
# T1: IL-18 receptor on HEK-Blue IL18R reporter cells (UniProt Q13478 19-541; O95256 20-599, limits assumed)
# T1 sequence (looked up) 1: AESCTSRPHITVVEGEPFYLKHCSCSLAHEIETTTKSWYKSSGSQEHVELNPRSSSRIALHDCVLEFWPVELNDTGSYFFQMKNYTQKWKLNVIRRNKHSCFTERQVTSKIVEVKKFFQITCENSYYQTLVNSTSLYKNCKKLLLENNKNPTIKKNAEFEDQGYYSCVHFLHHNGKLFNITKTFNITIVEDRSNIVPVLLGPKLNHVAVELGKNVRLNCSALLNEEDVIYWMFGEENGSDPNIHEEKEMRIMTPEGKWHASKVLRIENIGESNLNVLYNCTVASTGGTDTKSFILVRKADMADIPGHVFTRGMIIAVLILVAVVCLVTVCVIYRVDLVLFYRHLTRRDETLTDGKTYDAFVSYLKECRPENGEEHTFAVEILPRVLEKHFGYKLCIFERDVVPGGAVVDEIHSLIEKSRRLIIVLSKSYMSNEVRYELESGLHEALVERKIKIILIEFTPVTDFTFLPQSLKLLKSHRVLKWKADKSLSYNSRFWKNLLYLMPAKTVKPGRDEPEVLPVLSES
# T1 sequence (looked up) 2: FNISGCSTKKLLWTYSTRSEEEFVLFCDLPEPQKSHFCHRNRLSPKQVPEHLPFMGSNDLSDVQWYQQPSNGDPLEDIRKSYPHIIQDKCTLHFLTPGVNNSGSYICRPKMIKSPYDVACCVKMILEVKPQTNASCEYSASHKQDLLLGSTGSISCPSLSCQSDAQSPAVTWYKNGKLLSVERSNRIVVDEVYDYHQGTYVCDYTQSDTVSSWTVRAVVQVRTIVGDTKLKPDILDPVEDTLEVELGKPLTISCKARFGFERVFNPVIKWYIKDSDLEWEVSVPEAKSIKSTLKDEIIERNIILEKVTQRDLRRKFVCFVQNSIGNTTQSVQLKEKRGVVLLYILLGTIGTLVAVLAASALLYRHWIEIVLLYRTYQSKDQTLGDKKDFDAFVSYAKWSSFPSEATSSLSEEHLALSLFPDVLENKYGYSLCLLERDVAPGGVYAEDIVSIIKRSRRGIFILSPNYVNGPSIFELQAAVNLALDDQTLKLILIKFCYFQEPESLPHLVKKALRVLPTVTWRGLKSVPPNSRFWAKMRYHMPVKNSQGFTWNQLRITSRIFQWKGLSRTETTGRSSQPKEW
# B1: modified IL-18 polypeptide SEQ ID NO: 242 (N-terminal G, E6K, V11I, C38A, K53A, T63A, C76A, C127A) (ligand)
# chain: GYFGKLKSKLSIIRNLNDQVLFIDQGNRPLFEDMTDSDARDNAPRTIFIISMYADSQPRGMAVAISVKCEKISTLSAENKIISFKEMNPPDNIKDTKSDIIFFQRSVPGHDNKMQFESSSYEGYFLAAEKERDLFKLILKKEDELGDRSIMFTVQNED
# B2: modified IL-18 polypeptide SEQ ID NO: 30 (E6K, V11I, C38A, K53A, T63A, C76A, C127A) (ligand)
# chain: YFGKLKSKLSIIRNLNDQVLFIDQGNRPLFEDMTDSDARDNAPRTIFIISMYADSQPRGMAVAISVKCEKISTLSAENKIISFKEMNPPDNIKDTKSDIIFFQRSVPGHDNKMQFESSSYEGYFLAAEKERDLFKLILKKEDELGDRSIMFTVQNED
# B3: modified IL-18 polypeptide SEQ ID NO: 214 (V11I, D37A, C38A, K53A, C76A, C127A) (ligand)
# chain: B2 chain with K6E, D37A, A63T
# B4: modified IL-18 polypeptide SEQ ID NO: 226 (V11I, C38A, S55R, C76A, C127A) (ligand)
# chain: B2 chain with K6E, A53K, S55R, A63T
# B5: modified IL-18 polypeptide SEQ ID NO: 215 (V11I, E31A, D37A, C38A, K53A, C76A, C127A) (ligand)
# chain: B2 chain with K6E, E31A, D37A, A63T
# B6: modified IL-18 polypeptide SEQ ID NO: 216 (V11I, C38A, D40A, K53A, C76A, C127A) (ligand)
# chain: B2 chain with K6E, D40A, A63T
# B7: modified IL-18 polypeptide SEQ ID NO: 240 (E6R, V11I, C38A, K53A, T63A, C76A, C127A) (ligand)
# chain: B2 chain with K6R
# B8: modified IL-18 polypeptide SEQ ID NO: 227 (V11I, C38A, S55T, C76A, C127A) (ligand)
# chain: B2 chain with K6E, A53K, S55T, A63T
# B9: modified IL-18 polypeptide SEQ ID NO: 207 (V11I, C38A, M51G, K53A, C76A, C127A) (ligand)
# chain: B2 chain with K6E, M51G, A63T
# B10: modified IL-18 polypeptide SEQ ID NO: 237 (E6K, V11I, C38A, K53A, T63A, C76A, C127A, V153E) (ligand)
# chain: B2 chain with V153E
# B11: modified IL-18 polypeptide SEQ ID NO: 205 (V11I, C38A, K53A, T63A, C76A, C127A) (ligand)
# chain: B2 chain with K6E
# B12: modified IL-18 polypeptide SEQ ID NO: 211 (V11I, T34A, C38A, K53A, C76A, C127A) (ligand)
# chain: B2 chain with K6E, T34A, A63T
# B13: modified IL-18 polypeptide SEQ ID NO: 243 (Y1M, E6K, V11I, C38A, K53A, T63A, C76A, C127A) (ligand)
# chain: B2 chain with Y1M
# B14: modified IL-18 polypeptide SEQ ID NO: 213 (V11I, S36A, C38A, K53A, C76A, C127A) (ligand)
# chain: B2 chain with K6E, S36A, A63T
# B15: modified IL-18 polypeptide SEQ ID NO: 209 (F2A, V11I, C38A, K53A, C76A, C127A) (ligand)
# chain: B2 chain with F2A, K6E, A63T
# B16: modified IL-18 polypeptide SEQ ID NO: 206 (V11I, C38A, K53A, S55A, C76A, C127A) (ligand)
# chain: B2 chain with K6E, S55A, A63T
# B17: modified IL-18 polypeptide SEQ ID NO: 218 (V11I, C38A, K53A, C76A, C127A, D132A) (ligand)
# chain: B2 chain with K6E, A63T, D132A
# B18: modified IL-18 polypeptide SEQ ID NO: 225 (V11I, C38A, S55H, C76A, C127A) (ligand)
# chain: B2 chain with K6E, A53K, S55H, A63T
# B19: modified IL-18 polypeptide SEQ ID NO: 234 (E6K, V11I, C38A, K53A, T63A, C76A, Q103R, C127A) (ligand)
# chain: B2 chain with Q103R
# B20: modified IL-18 polypeptide SEQ ID NO: 224 (V11I, C38A, C76A, Q103K, C127A) (ligand)
# chain: B2 chain with K6E, A53K, A63T, Q103K
# B21: modified IL-18 polypeptide SEQ ID NO: 239 (E6K, V11I, C38A, M51G, K53A, T63A, C76A, C127A) (ligand)
# chain: B2 chain with M51G
# B22: modified IL-18 polypeptide SEQ ID NO: 229 (V11I, C38A, C76A, S105K, C127A) (ligand)
# chain: B2 chain with K6E, A53K, A63T, S105K
# B23: modified IL-18 polypeptide SEQ ID NO: 232 (E6K, V11I, C38A, I49M, K53A, T63A, C76A, C127A) (ligand)
# chain: B2 chain with I49M
# B24: modified IL-18 polypeptide SEQ ID NO: 228 (V11I, C38A, C76A, S105I, C127A) (ligand)
# chain: B2 chain with K6E, A53K, A63T, S105I
# B25: modified IL-18 polypeptide SEQ ID NO: 204 (V11I, C38A, K53A, C76A, C127A) (ligand)
# chain: B2 chain with K6E, A63T
# B26: modified IL-18 polypeptide SEQ ID NO: 238 (E6K, V11I, C38A, K53A, T63A, C76A, C127A, V153Y) (ligand)
# chain: B2 chain with V153Y
# B27: modified IL-18 polypeptide SEQ ID NO: 221 (V11I, C38A, K53A, C76A, D110A, C127A) (ligand)
# chain: B2 chain with K6E, A63T, D110A
# B28: modified IL-18 polypeptide SEQ ID NO: 208 (V11I, C38A, K53A, D54A, C76A, C127A) (ligand)
# chain: B2 chain with K6E, D54A, A63T
# B29: modified IL-18 polypeptide SEQ ID NO: 210 (V11I, E31A, C38A, K53A, C76A, C127A) (ligand)
# chain: B2 chain with K6E, E31A, A63T
# B30: modified IL-18 polypeptide SEQ ID NO: 219 (V11I, C38A, K53A, C76A, G108A, C127A) (ligand)
# chain: B2 chain with K6E, A63T, G108A
# B31: modified IL-18 polypeptide SEQ ID NO: 233 (E6K, V11I, C38A, I49R, K53A, T63A, C76A, C127A) (ligand)
# chain: B2 chain with I49R
# B32: modified IL-18 polypeptide SEQ ID NO: 220 (V11I, C38A, K53A, C76A, H109A, C127A) (ligand)
# chain: B2 chain with K6E, A63T, H109A
# B33: modified IL-18 polypeptide SEQ ID NO: 223 (K8E, V11I, C38A, C76A, Q103R, C127A) (ligand)
# chain: B2 chain with K6E, K8E, A53K, A63T, Q103R
# B34: modified IL-18 polypeptide SEQ ID NO: 212 (V11I, D35A, C38A, K53A, C76A, C127A) (ligand)
# chain: B2 chain with K6E, D35A, A63T
# B35: modified IL-18 polypeptide SEQ ID NO: 222 (K8R, V11I, C38A, C76A, Q103E, C127A) (ligand)
# chain: B2 chain with K6E, K8R, A53K, A63T, Q103E
# B36: modified IL-18 polypeptide SEQ ID NO: 235 (E6K, K8E, V11I, C38A, K53A, T63A, C76A, Q103R, C127A) (ligand)
# chain: B2 chain with K8E, Q103R
# B37: modified IL-18 polypeptide SEQ ID NO: 230 (K8L, E6K, V11I, C38A, K53A, T63A, C76A, C127A) (ligand)
# chain: B2 chain with K8L
# B38: modified IL-18 polypeptide SEQ ID NO: 217 (V11I, C38A, N41A, K53A, C76A, C127A) (ligand)
# chain: B2 chain with K6E, N41A, A63T
# B39: modified IL-18 polypeptide SEQ ID NO: 60 (E6K, C38Q, K53A) (ligand)
# chain: B2 chain with I11V, A38Q, A63T, A76C, A127C
# B40: modified IL-18 polypeptide SEQ ID NO: 62 (E6K, C38A, K53A, C127A) (ligand)
# chain: B2 chain with I11V, A63T, A76C
# B41: modified IL-18 polypeptide SEQ ID NO: 61 (E6K, C38A, K53A, C76A) (ligand)
# chain: B2 chain with I11V, A63T, A127C
# B42: modified IL-18 polypeptide SEQ ID NO: 59 (E6K, C38A, K53A) (ligand)
# chain: B2 chain with I11V, A63T, A76C, A127C
# B43: modified IL-18 polypeptide SEQ ID NO: 63 (E6K, C38A, K53A, C76A, C127A) (ligand)
# chain: B2 chain with I11V, A63T
# B44: modified IL-18 polypeptide SEQ ID NO: 241 (N-terminal 4xG, E6K, V11I, C38A, K53A, T63A, C76A, C127A) (ligand)
# chain: GGGGYFGKLKSKLSIIRNLNDQVLFIDQGNRPLFEDMTDSDARDNAPRTIFIISMYADSQPRGMAVAISVKCEKISTLSAENKIISFKEMNPPDNIKDTKSDIIFFQRSVPGHDNKMQFESSSYEGYFLAAEKERDLFKLILKKEDELGDRSIMFTVQNED
# Molecular target: T1, IL-18 receptor on HEK-Blue IL18R …
# Assay: cell-based or functional assay
row,"EC50, HEK-Blue IL18R reporter (SEAP) [nM]",Binder
1,1.68,B1
2,0.053,B2
3,14.1,B3
4,1.91,B4
5,11.9,B5
6,0.52,B6
7,0.04,B7
8,4.73,B8
9,0.8,B9
10,0.1,B10
11,0.17,B11
12,0.7,B12
13,0.02,B13
14,0.25,B14
15,7.28,B15
16,3.63,B16
17,1.95,B17
18,3.14,B18
19,0.26,B19
20,1.5,B20
21,0.1,B21
22,7.73,B22

row,"EC50, HEK-Blue IL18R reporter (SEAP) [nM]",Binder
1,0.07,B23
2,5.37,B24
3,0.98,B25
4,0.08,B26
5,2.02,B27
6,1,B28
7,6.6,B29
8,15.6,B30
9,0.04,B31
10,19.5,B32
11,2.3,B33
12,13.1,B34
13,2.01,B35
14,0.4,B36
15,0.29,B37
16,11.7,B38
17,0.203,B39
18,0.17,B40
19,0.084,B41
20,0.268,B42
21,0.0139,B43
22,2.5,B44
